Test results: the supplement of paper PMC12764529
± gives the half width of the 95% confidence interval.

Test: folding stability dG unfold from trypsin proteolysis; higher = more stable
How it was run: (§1)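 Designed mini-proteins with no cysteine and under 80 residues were kept only if AlphaFold2 dimer inter-PAE was above 15. In a PA-tagged cDNA display construct, they were digested with trypsin and chymotrypsin and then sequenced. K50 was inferred by Bayesian fitting of counts, and unfolding free energy was derived per protease or combined against a sequence-predicted unfolded-state K50 and a shared folded-state K50.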

In order of falling “folding stability dG unfold” value:
1. SKWTIDIDITYYPEYGVITVTIRYPNSWEQARFDVRSFIHEAGMPIKLEDIEIEQVEGWYEITYTIRIPPSA [r9_164_TrROS]  3.49 ± 0.19 kcal/mol
2. SAGGEEEEFEVVAEIEIEVDGKTYTITIVRDKETDEYRVEIRNKETGETKTITVSAEELEELLKALSSAGGS [r8_469_TrROS_Hall]  3.17 ± 0.36 kcal/mol
3. SAGGSAMYTVTLTLPPSLAIPPDSTITVTFPDGSTETYSVDSGPVTITLTAPADGSTSVGVSLSVPSAGGSA [r15_992_JUSTAS]  2.6 ± 0.097 kcal/mol
4. SVIIYMPWDNIPNMLRQLKALAKNGQKPVTIYMPVPEDWRRELREWLDDYGITVEPHPDNDWYKIEIEPKSA [r9_600_TrROS]  2.54 ± 0.069 kcal/mol
5. SAGGSAGGSAGPMEVERETIMIPIDPDKGYYIMIDVWRYKNPGGPPFPAPSISIMDLDDLSAGGSAGGSAGG [r11_51_TrROS]  1.78 ± 0.072 kcal/mol
6. SAGGSAGGSAMRLEIELENGLKIEIELEVNEDGELKMKIKIEPLPPVPEVVVTKVVKLEEESAGGSAGGSAG [r3_15_TrROS_Hall]  1.72 ± 0.29 kcal/mol
7. SAGGSAGGSPGNYIIQIEIKFPGRKHTWHVDSPEEALEQLKNDLEKQHPNAPITDVEIEVFPLSAGGSAGGS [r12_429_TrROS]  0.791 ± 0.2 kcal/mol
8. SAGKELVLRVRLYRPVPLEEPRVEEREVVVPRKEDEPIEKVVEELLEPDWVLEVEVFDEGKLIERYYTHSAG [r5_278_TrMRF]  0.721 ± 0.075 kcal/mol
9. SAGGSAGGSMRVRFLVTEPGLGPETAALRVERRLLEEYPVRVKGVRVRTRPDGGYLVVVEVEPSAGGSAGGS [r12_781_TrMRF]  0.673 ± 0.076 kcal/mol
10. SAGGSAGGSAPPWTRVLGLGTFPPGVPDLPVEVPGGNVYALFTPTEDGSVQVLIVDLIPPLSAGGSAGGSAG [r3_464_TrMRF]  0.472 ± 0.1 kcal/mol
11. SAGGSAMAIFTVTPPDGVPVTERYSFTTPEEVEAAFAAAKAALPPGTALSVTLVPEEEVAAGRPLLSAGGSA [r15_469_JUSTAS]  0.386 ± 0.027 kcal/mol
12. SAGGSAGGSAGGMTITVNGPTATITYPDGSVETIPLTSPEEFEALKAAHPDVEATPASPSAGGSAGGSAGGS [r10_1211_JUSTAS]  0.353 ± 0.047 kcal/mol
13. SAGGSAGGSAGGFTVTVVEPVDPNDPAFKKLMEERGLPPEEVVATKTLTADSEEEIAALLSAGGSAGGSAGG [r11_83_JUSTAS]  0.283 ± 0.099 kcal/mol
14. SAGGSAGGSAGGSSSSTVPLPDDTTLTVHTGSSSYTVTTTSPDGTSTTTTVSPATVAAALSAGGSAGGSAGG [r11_1068_JUSTAS]  0.255 ± 0.022 kcal/mol
15. SAGGSGMVRQEHEYRGPNGWHMRSEMYYSPENGMMNMEMEWVPVIKLPEDDPAKLKKLLAKEGIPISAGGSA [r2_304_TrROS]  0.119 ± 0.16 kcal/mol
16. SAGGSAGGSAKYILITAPKDNEEKVLEIAEELEKKYGVKLHKVERLPDGTVKALVEIFAPEKSAGGSAGGSA [r18_351_TrMRF]  0.057 ± 0.073 kcal/mol
17. SAGGSAGGSAGGLAPAPDGSPVAVLLDDGRVVVFDPETAELYVAFVTPDSVRVVPLPLDLSAGGSAGGSAGG [r7_527_TrMRF]  -0.565 ± 0.071 kcal/mol

Test: folding stability dG unfold from chymotrypsin proteolysis; higher = more stable
How it was run: as §1

In order of falling “folding stability dG unfold” value:
1. SAGGEEEEFEVVAEIEIEVDGKTYTITIVRDKETDEYRVEIRNKETGETKTITVSAEELEELLKALSSAGGS [r8_469_TrROS_Hall]  4.77 ± 0.32 kcal/mol
2. SKWTIDIDITYYPEYGVITVTIRYPNSWEQARFDVRSFIHEAGMPIKLEDIEIEQVEGWYEITYTIRIPPSA [r9_164_TrROS]  3.88 ± 0.13 kcal/mol
3. SAGGSAMYTVTLTLPPSLAIPPDSTITVTFPDGSTETYSVDSGPVTITLTAPADGSTSVGVSLSVPSAGGSA [r15_992_JUSTAS]  3.67 ± 0.04 kcal/mol
4. SVIIYMPWDNIPNMLRQLKALAKNGQKPVTIYMPVPEDWRRELREWLDDYGITVEPHPDNDWYKIEIEPKSA [r9_600_TrROS]  3.318 ± 0.0095 kcal/mol
5. SAGGSAGGSAGPMEVERETIMIPIDPDKGYYIMIDVWRYKNPGGPPFPAPSISIMDLDDLSAGGSAGGSAGG [r11_51_TrROS]  3.11 ± 0.045 kcal/mol
6. SAGGSAGGSAMRLEIELENGLKIEIELEVNEDGELKMKIKIEPLPPVPEVVVTKVVKLEEESAGGSAGGSAG [r3_15_TrROS_Hall]  1.69 ± 0.12 kcal/mol
7. SAGGSAMAIFTVTPPDGVPVTERYSFTTPEEVEAAFAAAKAALPPGTALSVTLVPEEEVAAGRPLLSAGGSA [r15_469_JUSTAS]  1.59 ± 0.043 kcal/mol
8. SAGKELVLRVRLYRPVPLEEPRVEEREVVVPRKEDEPIEKVVEELLEPDWVLEVEVFDEGKLIERYYTHSAG [r5_278_TrMRF]  1.36 ± 0.22 kcal/mol
9. SAGGSAGGSAGGMTITVNGPTATITYPDGSVETIPLTSPEEFEALKAAHPDVEATPASPSAGGSAGGSAGGS [r10_1211_JUSTAS]  1.21 ± 0.014 kcal/mol
10. SAGGSGMVRQEHEYRGPNGWHMRSEMYYSPENGMMNMEMEWVPVIKLPEDDPAKLKKLLAKEGIPISAGGSA [r2_304_TrROS]  1.19 ± 0.099 kcal/mol
11. SAGGSAGGSMRVRFLVTEPGLGPETAALRVERRLLEEYPVRVKGVRVRTRPDGGYLVVVEVEPSAGGSAGGS [r12_781_TrMRF]  1.03 ± 0.1 kcal/mol
12. SAGGSAGGSAPPWTRVLGLGTFPPGVPDLPVEVPGGNVYALFTPTEDGSVQVLIVDLIPPLSAGGSAGGSAG [r3_464_TrMRF]  0.965 ± 0.21 kcal/mol
13. SAGGSAGGSAKYILITAPKDNEEKVLEIAEELEKKYGVKLHKVERLPDGTVKALVEIFAPEKSAGGSAGGSA [r18_351_TrMRF]  0.674 ± 0.17 kcal/mol
14. SAGGSAGGSAGGLAPAPDGSPVAVLLDDGRVVVFDPETAELYVAFVTPDSVRVVPLPLDLSAGGSAGGSAGG [r7_527_TrMRF]  0.656 ± 0.038 kcal/mol
15. SAGGSAGGSAGGFTVTVVEPVDPNDPAFKKLMEERGLPPEEVVATKTLTADSEEEIAALLSAGGSAGGSAGG [r11_83_JUSTAS]  0.219 ± 0.15 kcal/mol
16. SAGGSAGGSPGNYIIQIEIKFPGRKHTWHVDSPEEALEQLKNDLEKQHPNAPITDVEIEVFPLSAGGSAGGS [r12_429_TrROS]  0.155 ± 0.94 kcal/mol
17. SAGGSAGGSAGGSSSSTVPLPDDTTLTVHTGSSSYTVTTTSPDGTSTTTTVSPATVAAALSAGGSAGGSAGG [r11_1068_JUSTAS]  -0.0339 ± 0.1 kcal/mol

Test: folding stability dG unfold (combined trypsin and chymotrypsin); higher = more stable
How it was run: as §1

In order of rising “folding stability dG unfold” value:
1. SAGGSAGGSAGGSSSSTVPLPDDTTLTVHTGSSSYTVTTTSPDGTSTTTTVSPATVAAALSAGGSAGGSAGG [r11_1068_JUSTAS]  0.188 ± 0.077 kcal/mol
2. SAGGSAGGSAGGFTVTVVEPVDPNDPAFKKLMEERGLPPEEVVATKTLTADSEEEIAALLSAGGSAGGSAGG [r11_83_JUSTAS]  0.238 ± 0.12 kcal/mol
3. SAGGSAGGSAGGLAPAPDGSPVAVLLDDGRVVVFDPETAELYVAFVTPDSVRVVPLPLDLSAGGSAGGSAGG [r7_527_TrMRF]  0.332 ± 0.053 kcal/mol
4. SAGGSAGGSAKYILITAPKDNEEKVLEIAEELEKKYGVKLHKVERLPDGTVKALVEIFAPEKSAGGSAGGSA [r18_351_TrMRF]  0.438 ± 0.14 kcal/mol
5. SAGGSAGGSPGNYIIQIEIKFPGRKHTWHVDSPEEALEQLKNDLEKQHPNAPITDVEIEVFPLSAGGSAGGS [r12_429_TrROS]  0.556 ± 0.46 kcal/mol
6. SAGGSAGGSAPPWTRVLGLGTFPPGVPDLPVEVPGGNVYALFTPTEDGSVQVLIVDLIPPLSAGGSAGGSAG [r3_464_TrMRF]  0.773 ± 0.17 kcal/mol
7. SAGGSGMVRQEHEYRGPNGWHMRSEMYYSPENGMMNMEMEWVPVIKLPEDDPAKLKKLLAKEGIPISAGGSA [r2_304_TrROS]  0.803 ± 0.17 kcal/mol
8. SAGGSAGGSMRVRFLVTEPGLGPETAALRVERRLLEEYPVRVKGVRVRTRPDGGYLVVVEVEPSAGGSAGGS [r12_781_TrMRF]  0.94 ± 0.088 kcal/mol
9. SAGGSAGGSAGGMTITVNGPTATITYPDGSVETIPLTSPEEFEALKAAHPDVEATPASPSAGGSAGGSAGGS [r10_1211_JUSTAS]  0.967 ± 0.093 kcal/mol
10. SAGKELVLRVRLYRPVPLEEPRVEEREVVVPRKEDEPIEKVVEELLEPDWVLEVEVFDEGKLIERYYTHSAG [r5_278_TrMRF]  1.11 ± 0.2 kcal/mol
11. SAGGSAMAIFTVTPPDGVPVTERYSFTTPEEVEAAFAAAKAALPPGTALSVTLVPEEEVAAGRPLLSAGGSA [r15_469_JUSTAS]  1.23 ± 0.034 kcal/mol
12. SAGGSAGGSAMRLEIELENGLKIEIELEVNEDGELKMKIKIEPLPPVPEVVVTKVVKLEEESAGGSAGGSAG [r3_15_TrROS_Hall]  1.98 ± 0.39 kcal/mol
13. SAGGSAGGSAGPMEVERETIMIPIDPDKGYYIMIDVWRYKNPGGPPFPAPSISIMDLDDLSAGGSAGGSAGG [r11_51_TrROS]  2.68 ± 0.11 kcal/mol
14. SVIIYMPWDNIPNMLRQLKALAKNGQKPVTIYMPVPEDWRRELREWLDDYGITVEPHPDNDWYKIEIEPKSA [r9_600_TrROS]  3.09 ± 0.077 kcal/mol
15. SAGGSAMYTVTLTLPPSLAIPPDSTITVTFPDGSTETYSVDSGPVTITLTAPADGSTSVGVSLSVPSAGGSA [r15_992_JUSTAS]  3.27 ± 0.1 kcal/mol
16. SKWTIDIDITYYPEYGVITVTIRYPNSWEQARFDVRSFIHEAGMPIKLEDIEIEQVEGWYEITYTIRIPPSA [r9_164_TrROS]  3.78 ± 0.39 kcal/mol
17. SAGGEEEEFEVVAEIEIEVDGKTYTITIVRDKETDEYRVEIRNKETGETKTITVSAEELEELLKALSSAGGS [r8_469_TrROS_Hall]  4.77 ± 0.52 kcal/mol
